# Source: the supplement of paper PMC10065799, “High-throughput profiling of sequence recognition by tyrosine kinases and SH2 domains using bacterial peptide display” (eLife, 2023)
# Target: Hck (UniProt P08631)
# Experiment: phosphorylation enrichment, bacterial display (enrichment ratio); higher = better substrate or ligand; peptides without Tyr show the background
# 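Also: 11-residue human phosphosite peptides and single-mutation variants displayed on the E. coli surface, counted by deep sequencing, each peptide's frequency after selection divided by its frequency in the unselected input library; frequency after pTyr selection over input frequency; kinase dosed for 20-30% of maximal phosphorylation in three min.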
# Hck, sequence (P08631 whole entry, looked up): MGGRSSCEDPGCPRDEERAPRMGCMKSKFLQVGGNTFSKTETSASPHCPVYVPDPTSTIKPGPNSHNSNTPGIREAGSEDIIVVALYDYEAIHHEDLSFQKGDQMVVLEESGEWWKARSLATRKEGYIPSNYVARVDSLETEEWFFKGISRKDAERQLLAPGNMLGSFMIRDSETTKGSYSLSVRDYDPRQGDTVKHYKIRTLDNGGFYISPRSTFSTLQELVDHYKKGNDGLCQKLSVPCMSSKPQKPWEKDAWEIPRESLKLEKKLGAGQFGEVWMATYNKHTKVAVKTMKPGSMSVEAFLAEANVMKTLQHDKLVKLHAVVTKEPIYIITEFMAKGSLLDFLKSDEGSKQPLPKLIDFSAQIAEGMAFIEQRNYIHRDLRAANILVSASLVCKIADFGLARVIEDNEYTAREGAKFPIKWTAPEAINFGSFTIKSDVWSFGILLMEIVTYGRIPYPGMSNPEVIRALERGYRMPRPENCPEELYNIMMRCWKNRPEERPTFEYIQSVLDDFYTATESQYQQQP
row,Sequence,phosphorylation enrichment
1,KNSFKYFMSDD [ATRX_Y203_C200S_YF],0.478
2,GIPIQYPIISE [NOG_Y222_W217G],0.446
3,TYVKSYTIHYS [F5_Y2153_M2148T],0.567
4,SKNSKYNAEST [PSEN1_Y315],0.351
5,DYYDLYGGEKF [PTPN11_Y66],5.08
6,MSGDVYSTDYY [NTRK2_Y702_R699G],2.39
7,TKDTFHKQPMF [GBA_Y451_Y451H],0.312
8,FADIAYNFRHG [PAH_Y166_YF],0.506
9,PLYRKYWPNHI [GREB1L_Y1560],1.11
10,ENRKFYMDLKE [PURA_Y156_YF],0.469
11,LNPLIYTLKNA [OR4C46_Y285],2.31
12,HRGYLYLAIEY [TEK_Y899],0.466
13,CSTIHYNFMCN [TP53_Y234_T230S_YF],0.375
14,SWSTSYSGYRC [NKAPL_Y91_Y96C],0.552
15,RGDTVYTVNCM [KBTBD13_Y404_R408C],1.21
16,YPLELYERVRM [PRKCG_Y312],1.65
17,SVEELYAIPPD [PEAK1_Y797],4.24
18,ATHRSYDSDNP [MMUT_Y146_G145S],0.476
19,SSWPDYVRPLP [HSPB1_Y54_G53D],0.511
20,NTGDFYDLFGG [PTPN11_Y63_YF],3.44
21,QMQLKYSQSDL [SMC1A_Y714_R711Q],0.655
22,DENCFYTRAAS [RPS19_Y54_W52C],0.576
23,LHSEAYLKFNE [PBRM1_Y1610_I1614N_YF],0.488
24,ARRHPYFYAPE [ALB_Y172],0.575
25,TEFSQYMRRKN [MAX_Y73_I71S_YF],0.715
26,LDFPEYNGVDR [CASQ1_Y43_D44N],1.16
27,ERKQTYGSCRK [LACTB_Y473],0.403
28,EDNPEYMRLRN [ADD2_Y31_D28N],0.489
29,GNLQENLTRHV [TGFBR2_Y336_Y336N],0.374

# Target: EPHB2 (UniProt P29323)
# Sequence (P29323 whole entry, looked up): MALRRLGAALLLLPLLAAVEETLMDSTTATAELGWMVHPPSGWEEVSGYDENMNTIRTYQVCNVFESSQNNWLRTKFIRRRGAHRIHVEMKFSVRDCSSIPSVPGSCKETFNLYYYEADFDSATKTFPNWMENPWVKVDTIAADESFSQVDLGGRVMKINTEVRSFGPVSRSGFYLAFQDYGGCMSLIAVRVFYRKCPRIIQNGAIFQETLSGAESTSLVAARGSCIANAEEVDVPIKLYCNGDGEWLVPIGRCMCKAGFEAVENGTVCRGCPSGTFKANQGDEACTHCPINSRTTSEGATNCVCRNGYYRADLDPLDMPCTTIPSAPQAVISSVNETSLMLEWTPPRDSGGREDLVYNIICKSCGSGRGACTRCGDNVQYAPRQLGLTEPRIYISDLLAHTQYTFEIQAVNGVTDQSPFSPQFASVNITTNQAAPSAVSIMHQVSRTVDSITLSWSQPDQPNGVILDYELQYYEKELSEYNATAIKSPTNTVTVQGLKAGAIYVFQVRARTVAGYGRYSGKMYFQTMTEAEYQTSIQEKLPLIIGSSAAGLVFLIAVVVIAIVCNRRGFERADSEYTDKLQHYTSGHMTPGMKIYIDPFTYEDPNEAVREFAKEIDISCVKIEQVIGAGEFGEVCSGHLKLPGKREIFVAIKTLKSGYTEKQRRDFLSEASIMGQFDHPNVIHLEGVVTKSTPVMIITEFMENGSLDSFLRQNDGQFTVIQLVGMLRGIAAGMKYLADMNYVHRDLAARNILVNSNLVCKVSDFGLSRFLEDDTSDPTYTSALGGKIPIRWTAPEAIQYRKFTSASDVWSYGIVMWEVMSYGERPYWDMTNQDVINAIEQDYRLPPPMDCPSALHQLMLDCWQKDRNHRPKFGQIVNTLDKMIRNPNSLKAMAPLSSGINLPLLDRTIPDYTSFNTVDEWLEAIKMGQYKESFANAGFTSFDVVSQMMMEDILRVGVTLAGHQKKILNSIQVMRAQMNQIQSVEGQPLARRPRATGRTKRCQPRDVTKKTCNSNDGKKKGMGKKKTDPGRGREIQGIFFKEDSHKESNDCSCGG
# Experiment: as above
row,Sequence,phosphorylation enrichment
1,KNSFKYFMSDD [ATRX_Y203_C200S_YF],0.55
2,GIPIQYPIISE [NOG_Y222_W217G],0.587
3,TYVKSYTIHYS [F5_Y2153_M2148T],0.722
4,SKNSKYNAEST [PSEN1_Y315],0.426
5,DYYDLYGGEKF [PTPN11_Y66],6.92
6,MSGDVYSTDYY [NTRK2_Y702_R699G],1.99
7,TKDTFHKQPMF [GBA_Y451_Y451H],0.352
8,FADIAYNFRHG [PAH_Y166_YF],0.514
9,PLYRKYWPNHI [GREB1L_Y1560],0.645
10,ENRKFYMDLKE [PURA_Y156_YF],0.691
11,LNPLIYTLKNA [OR4C46_Y285],0.603
12,HRGYLYLAIEY [TEK_Y899],0.485
13,CSTIHYNFMCN [TP53_Y234_T230S_YF],0.54
14,SWSTSYSGYRC [NKAPL_Y91_Y96C],0.547
15,RGDTVYTVNCM [KBTBD13_Y404_R408C],0.636
16,YPLELYERVRM [PRKCG_Y312],1.18
17,SVEELYAIPPD [PEAK1_Y797],13.6
18,ATHRSYDSDNP [MMUT_Y146_G145S],0.459
19,SSWPDYVRPLP [HSPB1_Y54_G53D],0.599
20,NTGDFYDLFGG [PTPN11_Y63_YF],0.632
21,QMQLKYSQSDL [SMC1A_Y714_R711Q],0.494
22,DENCFYTRAAS [RPS19_Y54_W52C],0.554
23,LHSEAYLKFNE [PBRM1_Y1610_I1614N_YF],0.651
24,ARRHPYFYAPE [ALB_Y172],0.553
25,TEFSQYMRRKN [MAX_Y73_I71S_YF],0.625
26,LDFPEYNGVDR [CASQ1_Y43_D44N],1.04
27,ERKQTYGSCRK [LACTB_Y473],0.406
28,EDNPEYMRLRN [ADD2_Y31_D28N],0.515
29,GNLQENLTRHV [TGFBR2_Y336_Y336N],0.422

# Tested on: c-Abl (mouse)
# Experiment: as above
row,Sequence,phosphorylation enrichment
1,KNSFKYFMSDD [ATRX_Y203_C200S_YF],0.628
2,GIPIQYPIISE [NOG_Y222_W217G],0.888
3,TYVKSYTIHYS [F5_Y2153_M2148T],0.625
4,SKNSKYNAEST [PSEN1_Y315],0.52
5,DYYDLYGGEKF [PTPN11_Y66],0.74
6,MSGDVYSTDYY [NTRK2_Y702_R699G],0.784
7,TKDTFHKQPMF [GBA_Y451_Y451H],0.445
8,FADIAYNFRHG [PAH_Y166_YF],0.578
9,PLYRKYWPNHI [GREB1L_Y1560],1.05
10,ENRKFYMDLKE [PURA_Y156_YF],0.557
11,LNPLIYTLKNA [OR4C46_Y285],0.474
12,HRGYLYLAIEY [TEK_Y899],1.24
13,CSTIHYNFMCN [TP53_Y234_T230S_YF],0.461
14,SWSTSYSGYRC [NKAPL_Y91_Y96C],0.751
15,RGDTVYTVNCM [KBTBD13_Y404_R408C],0.697
16,YPLELYERVRM [PRKCG_Y312],0.632
17,SVEELYAIPPD [PEAK1_Y797],9.56
18,ATHRSYDSDNP [MMUT_Y146_G145S],0.518
19,SSWPDYVRPLP [HSPB1_Y54_G53D],0.808
20,NTGDFYDLFGG [PTPN11_Y63_YF],0.773
21,QMQLKYSQSDL [SMC1A_Y714_R711Q],0.885
22,DENCFYTRAAS [RPS19_Y54_W52C],0.675
23,LHSEAYLKFNE [PBRM1_Y1610_I1614N_YF],0.922
24,ARRHPYFYAPE [ALB_Y172],0.605
25,TEFSQYMRRKN [MAX_Y73_I71S_YF],0.836
26,LDFPEYNGVDR [CASQ1_Y43_D44N],1.95
27,ERKQTYGSCRK [LACTB_Y473],0.5
28,EDNPEYMRLRN [ADD2_Y31_D28N],0.713
29,GNLQENLTRHV [TGFBR2_Y336_Y336N],0.432

# Target: FGFR1 (UniProt P11362)
# Sequence (P11362 whole entry, looked up): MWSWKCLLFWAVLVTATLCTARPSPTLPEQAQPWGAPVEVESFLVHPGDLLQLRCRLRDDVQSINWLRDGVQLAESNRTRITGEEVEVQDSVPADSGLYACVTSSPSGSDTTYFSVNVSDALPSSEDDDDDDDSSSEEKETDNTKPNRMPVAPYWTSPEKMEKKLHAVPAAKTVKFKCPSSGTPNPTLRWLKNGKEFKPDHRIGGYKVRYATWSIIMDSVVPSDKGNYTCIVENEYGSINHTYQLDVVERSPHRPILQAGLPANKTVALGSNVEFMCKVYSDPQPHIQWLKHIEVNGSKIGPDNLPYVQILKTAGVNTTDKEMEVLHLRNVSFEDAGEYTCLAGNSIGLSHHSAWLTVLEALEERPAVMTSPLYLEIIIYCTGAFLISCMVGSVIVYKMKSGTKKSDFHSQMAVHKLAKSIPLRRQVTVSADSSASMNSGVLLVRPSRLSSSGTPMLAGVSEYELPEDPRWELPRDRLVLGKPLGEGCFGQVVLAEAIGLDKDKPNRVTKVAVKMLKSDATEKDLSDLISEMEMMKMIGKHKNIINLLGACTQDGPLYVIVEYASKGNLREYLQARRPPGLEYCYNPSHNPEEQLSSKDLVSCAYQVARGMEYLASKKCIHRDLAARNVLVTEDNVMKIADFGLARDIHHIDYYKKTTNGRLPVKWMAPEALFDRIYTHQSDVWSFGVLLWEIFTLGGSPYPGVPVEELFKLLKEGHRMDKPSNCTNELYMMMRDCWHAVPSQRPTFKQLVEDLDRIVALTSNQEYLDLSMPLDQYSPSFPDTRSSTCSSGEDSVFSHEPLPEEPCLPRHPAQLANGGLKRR
# Experiment: as above
row,Sequence,phosphorylation enrichment
1,KNSFKYFMSDD [ATRX_Y203_C200S_YF],0.416
2,GIPIQYPIISE [NOG_Y222_W217G],0.627
3,TYVKSYTIHYS [F5_Y2153_M2148T],0.4
4,SKNSKYNAEST [PSEN1_Y315],0.339
5,DYYDLYGGEKF [PTPN11_Y66],13.4
6,MSGDVYSTDYY [NTRK2_Y702_R699G],3.16
7,TKDTFHKQPMF [GBA_Y451_Y451H],0.304
8,FADIAYNFRHG [PAH_Y166_YF],0.581
9,PLYRKYWPNHI [GREB1L_Y1560],1.15
10,ENRKFYMDLKE [PURA_Y156_YF],0.503
11,LNPLIYTLKNA [OR4C46_Y285],0.73
12,HRGYLYLAIEY [TEK_Y899],0.521
13,CSTIHYNFMCN [TP53_Y234_T230S_YF],0.458
14,SWSTSYSGYRC [NKAPL_Y91_Y96C],0.585
15,RGDTVYTVNCM [KBTBD13_Y404_R408C],0.479
16,YPLELYERVRM [PRKCG_Y312],0.481
17,SVEELYAIPPD [PEAK1_Y797],5.57
18,ATHRSYDSDNP [MMUT_Y146_G145S],0.593
19,SSWPDYVRPLP [HSPB1_Y54_G53D],2.49
20,NTGDFYDLFGG [PTPN11_Y63_YF],0.582
21,QMQLKYSQSDL [SMC1A_Y714_R711Q],0.829
22,DENCFYTRAAS [RPS19_Y54_W52C],0.594
23,LHSEAYLKFNE [PBRM1_Y1610_I1614N_YF],0.72
24,ARRHPYFYAPE [ALB_Y172],1.87
25,TEFSQYMRRKN [MAX_Y73_I71S_YF],0.718
26,LDFPEYNGVDR [CASQ1_Y43_D44N],0.986
27,ERKQTYGSCRK [LACTB_Y473],0.365
28,EDNPEYMRLRN [ADD2_Y31_D28N],0.547
29,GNLQENLTRHV [TGFBR2_Y336_Y336N],0.358
